Experimental data taken from paper PMC12921616, “Flower-like Silver Bismuth Sulfide/Carbon Nanosphere Nanocomposite for Sensitive Electrochemical Tumor Marker Sensing”.

Biological target: Carcinoembryonic antigen (CEA) (UniProt P06731 35-685)
Assay: electrochemical aptasensor (CV, DPV); immobilized aptamer; current falls with CEA; LOD 7.6 ng/mL (not a Kd); 0.05 M PBS pH 7.0, 0.1 M KCl, 5 mM [Fe(CN)6]3-/4-; temperature not stated

Carcinoembryonic antigen (CEA), sequence (P06731 35-685): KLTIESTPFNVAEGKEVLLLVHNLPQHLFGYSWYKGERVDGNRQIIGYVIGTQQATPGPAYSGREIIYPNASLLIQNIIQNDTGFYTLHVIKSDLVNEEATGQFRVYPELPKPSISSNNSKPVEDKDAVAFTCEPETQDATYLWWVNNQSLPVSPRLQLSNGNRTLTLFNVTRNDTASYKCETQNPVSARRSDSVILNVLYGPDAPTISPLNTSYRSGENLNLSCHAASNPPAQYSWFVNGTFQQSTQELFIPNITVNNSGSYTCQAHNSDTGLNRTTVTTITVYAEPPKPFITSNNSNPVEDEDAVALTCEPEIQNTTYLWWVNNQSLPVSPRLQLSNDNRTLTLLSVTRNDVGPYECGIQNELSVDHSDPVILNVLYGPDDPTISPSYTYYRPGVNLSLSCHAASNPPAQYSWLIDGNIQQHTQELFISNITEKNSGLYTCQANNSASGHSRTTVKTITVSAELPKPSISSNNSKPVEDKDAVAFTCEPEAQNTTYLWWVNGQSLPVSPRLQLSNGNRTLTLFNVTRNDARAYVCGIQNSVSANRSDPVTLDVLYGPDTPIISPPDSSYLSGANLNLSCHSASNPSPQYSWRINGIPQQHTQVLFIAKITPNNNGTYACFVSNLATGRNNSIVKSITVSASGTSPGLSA

B1: CEA aptamer (ssDNA)
DNA: GTGACGCTCCTAACGCTGACTCAGGTGCAGTTCTCGACTCGGTCTTGATGTGGGTCCTGTCCGTCCGAACCAATC
modifications: 5'-NH2
B1: binds.
